According to patent US20200071417A1 (MARENGO THERAPEUTICS, published 2020):

Tests used:
mouse CSF1R = target: T1, mouse CSF1R (mouse, UniProt P09581 20-977); assay: flow cytometry on transiently transfected ExpiCHO cells expressing mouse CSF1R only
T1 construct: whole, on cells; the mouse protein was used in the assays; also called mCSF1R
T1 sequence (looked up): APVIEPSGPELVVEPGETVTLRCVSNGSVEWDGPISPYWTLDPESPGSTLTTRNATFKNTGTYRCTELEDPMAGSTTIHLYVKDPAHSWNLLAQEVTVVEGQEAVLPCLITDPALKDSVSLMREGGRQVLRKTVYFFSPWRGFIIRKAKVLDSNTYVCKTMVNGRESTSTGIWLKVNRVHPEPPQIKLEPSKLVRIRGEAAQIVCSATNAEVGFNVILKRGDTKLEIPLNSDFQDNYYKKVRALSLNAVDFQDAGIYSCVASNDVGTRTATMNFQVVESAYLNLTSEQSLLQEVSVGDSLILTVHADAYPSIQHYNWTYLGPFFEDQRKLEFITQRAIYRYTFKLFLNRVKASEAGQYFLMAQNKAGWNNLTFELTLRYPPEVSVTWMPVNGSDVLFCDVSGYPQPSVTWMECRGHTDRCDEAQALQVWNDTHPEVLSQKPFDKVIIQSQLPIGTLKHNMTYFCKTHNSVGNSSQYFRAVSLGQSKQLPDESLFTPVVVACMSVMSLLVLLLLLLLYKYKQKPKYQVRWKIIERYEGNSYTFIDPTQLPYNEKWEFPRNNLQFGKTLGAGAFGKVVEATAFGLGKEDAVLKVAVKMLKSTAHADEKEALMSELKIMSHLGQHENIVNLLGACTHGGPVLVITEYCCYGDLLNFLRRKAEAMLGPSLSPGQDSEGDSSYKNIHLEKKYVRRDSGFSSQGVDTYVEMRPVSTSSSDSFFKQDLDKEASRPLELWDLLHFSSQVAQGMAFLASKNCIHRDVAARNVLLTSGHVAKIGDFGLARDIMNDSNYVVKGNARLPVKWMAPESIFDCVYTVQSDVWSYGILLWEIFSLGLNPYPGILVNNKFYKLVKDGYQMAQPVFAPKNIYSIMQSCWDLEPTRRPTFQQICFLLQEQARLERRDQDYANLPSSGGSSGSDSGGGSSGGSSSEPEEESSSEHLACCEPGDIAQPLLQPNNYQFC
Protocol: (§1) ExpiCHO cells were transiently transfected with mouse CCR2, mouse CSF1R, or both mouse CCR2 and CSF1R, according to the manufacturer's instructions. In brief, the transfections were performed with ExpiCHO cells at a cell density of 5.6-6.3×10⁶ cells/mL and at least 95% viability. For each transfection, 25 μg of DNA was diluted with 1 mL of OptiPro SFM (Gibco 12309050) and filtered using spin-X centrifuge tube filters (Corning 8160). A solution of 920 μL of OptiPro and 80 μL of expifectamine was added to the filtered DNA, incubated for 1 minute at room temperature, and then added to the cells. On day 1 of the transfection, the cells were enhanced using 150 μL of ExpiCHO enhancer.
(§2) On day 2 of the transfection, the cells were washed with PBS containing 1% BSA (Sigma) and used to set 96-well V-bottom plates (Biotix AP-0350-9CVS) with 100,000 cells/well. UniTI-01 was added to the cells in serial dilutions and incubated for 1 hour at 4° C. The plates were washed twice with PBS containing 1% BSA. […] The plates were read on a CytoFLEX S (Beckman Coulter). Data were calculated as the median fluorescence intensity of the PE-positive population vs. the median fluorescence intensity of the PE-negative population. The data was normalized for the percent of total median fluorescence intensity. […]

mouse CCR2 = target: T2, mouse CCR2 (mouse, UniProt P51683 1-373); assay: flow cytometry on transiently transfected ExpiCHO cells expressing mouse CCR2 only
T2 construct: whole, on cells; the mouse protein was used in the assays; also called mCCR2
Protocol: as §1, §2

[1] = target: T3, mouse CCR2 and mouse CSF1R co-expressed on the same ExpiCHO cells (mouse, UniProt P51683 1-373; P09581 20-977); assay: flow cytometry on transiently transfected ExpiCHO cells expressing both mouse CCR2 and mouse CSF1R
T3 construct: whole, on cells; also called both mCCR2 and mCSF1R; CCR2 and CSF1R double positive cells
Protocol: as §1, §2

T2 sequence (P51683 whole entry): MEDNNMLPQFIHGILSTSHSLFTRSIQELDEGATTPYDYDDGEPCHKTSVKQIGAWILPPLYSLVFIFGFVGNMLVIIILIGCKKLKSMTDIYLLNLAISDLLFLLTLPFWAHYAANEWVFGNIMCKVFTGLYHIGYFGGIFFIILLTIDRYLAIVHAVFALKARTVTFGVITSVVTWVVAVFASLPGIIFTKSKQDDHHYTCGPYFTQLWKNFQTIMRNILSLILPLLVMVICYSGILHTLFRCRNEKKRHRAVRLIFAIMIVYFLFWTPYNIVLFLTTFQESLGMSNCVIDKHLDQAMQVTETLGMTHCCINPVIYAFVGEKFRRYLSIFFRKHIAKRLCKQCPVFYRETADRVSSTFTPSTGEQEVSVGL
T3 sequence (P51683 whole entry, one chain of several): as the sequence (P51683 whole entry) above

EC50 (mouse CSF1R): 1 nM
EC50 (mouse CCR2): 15 nM
EC50 [1]: 0.4 nM
B1: UniTI-01 (multispecific molecule #1), anti-CCR2/anti-CSF1R bispecific antibody (bispecific antibody)
heavy 1: QVQLQESGPGLVQPSQTLSLTCTVSGFSLTDFSVHWVRQPPGKGLEWMGRIRSEGNTDYNSALKSRLSISRDTSKSQVFLKMNSLQTEDTAIYFCTRGDILGFGYWGQGVMVTVSSAQTTAPSVYPLAPGCGDTTSSTVTLGCLVKGYFPEPVTVTWNSGALSSDVHTFPAVLQSGLYTLTSSVTSSTWPSQTVTCNVAHPASSTKVDKKVERRTIKPCPPCKCPAPNLLGGPSVFIFPPKIKDVLMISLSPIVTCVVVDVSEDDPDVQISWFVNNVEVHTAQTQTHREDYNSTLRVVSALPIQHQDWMSGKEFKCKVNNKDLPAPIERTISKPKGSVRAPQVYVLPPCEEEMTKKQVTLWCMVTDFMPEDIYVEWTNNGKTELNYKNTEPVLDSDGSYFMYSKLRVEKKNWVERNSYSCSVVHEGLHNHHTTKSFSRTPGK
light 1: DIVMTQSPLSVSVTPGESASISCRSSKSLLHFKGITFVYWYLQKPGQSPQLLIFRMSSLASGVPDRFSGSGSETDFTLKISRVEAEDVGTYYCGQLLENPYTFGAGTKLELKRADAAPTVSIFPPSMEQLTSGGATVVCFVNNFYPRDISVKWKIDGSEQRDGVLDSVTDQDSKDSTYSMSSTLSLTKVEYERHNLYTCEVVHKTSSSPVVKSFNRNEC
heavy 2: QVQLQQSGAELVKPGSSVKISCKASGYTFTSNFMHWIKQQPGNGLEWIGWIYPGDGDTEYNQKFNGKATLTADKSSSTAYMQLSSLTSEDSAVYFCAVNYGGYVLDAWGQGASVTVSSAETTAPSVYPLAPGTALKSNSMVTLGCLVKGYFPEPVTVTWNSGALSSGVHTFPAVLQSGLYTLTSSVTVPSSTWSSQAVTCNVAHPASSTKVDKKIVPRECNTIKPCPPCKCPAPNLLGGPSVFIFPPKIKDVLMISLSPIVTCVVVDVSEDDPDVQISWFVNNVEVHTAQTQTHREDYNSTLRVVSALPIQHQDWMSGKEFKCKVNNKDLPAPIERTISKPKGSVRAPQVCVLPPPEEEMTKKQVTLSCAVTDFMPEDIYVEWTNNGKTELNYKNTEPVLDSDGSYFMVSKLRVEKKNWVERNSYSCSVVHEGLHNHHTTKSFSRTPGK
light 2: EIVLTQSPTTMAASPGEKVTITCRASSSTNYMSWYQQKSGASPKPWIYETSKLASGVPDRFSGSGSGTSYSFTISSMETEDAATYYCHQWSSTPLTFGSGTKLEIKRADAAPTVSIFPPSMEQLTSGGATVVCFVNNFYPRDISVKWKIDGSEQRDGVLDSVTDQDSKDSTYSMSSTLSLTKVEYERHNLYTCEVVHKTSSSPVVKSFNRNEC
notes: Knob-in-hole heterodimer with one anti-CCR2 arm and one anti-mCSF1R arm
